For data set [1] the following is noted: literature (Lin et al. 2007); cited from earlier work.
Data set [2] is described as follows: NADH oxidation with 2-oxoadipate plus CO2 added as NaHCO3 (reductive carboxylation). The data set is classed as biochemical. Here is the method:
(§1) NADH, 2-oxoadipate, 2-oxoglutarate, 2-heptandioate, and MgCl2 were from Sigma. Standard reaction mixes contained 15 mM 2-oxoadipate, 100 μM NADH, and a reaction buffer with final concentrations of 20 mM MgCl2 and 500 mM HEPES, pH 7.3. NADH oxidation was monitored by the decrease in fluorescence with excitation of 340 nm and emission of 450 nm on a PolarSTAR Optima plate reader (BMG Labtech). Fluorescence monitored reactions were carried out in 10-μL volumes in a 384-well black microplate (Greiner 788076) covered with clear optical film. The levels of fluorescence were converted to NADH concentrations based on standards of NADH in reaction buffer containing BSA. Reactions with high amounts of NADH were monitored by the UV absorbance of NADH at 340 nm in 40-μL reaction volumes in clear 96-well plates.
(§2) Reaction rates are NADH oxidation per unit time per unit of purified enzyme or crude lysate and 1 Unit (U) is 1 μmolNADH min^−1 mgenzyme^−1. Rates are initial rates calculated by least squares linear regression on the first 10 minutes of the reaction. For KM determination, concentrations of substrate/cofactors at least 5×-higher than the KM were used, while the species of interest was varied in concentration; substrate/cofactor concentrations: 500 μM NADH; 15 mM 2-oxoadipate; 20 mM MgCl2. Reported α-hydroxyadipate (2-hydroxy adpic acid) Vmax values were obtained from 2-oxoadipate KM determination experiments. Michaelis-Menten KM and Vmax parameters were estimated by fitting data to a curve using nonlinear regression in GraphPad Prism 5.0 (GraphPad Software, La Jolla, Calif.).

The conditions of data set [3]: ScHIDH, literature; read-out: KM,HCO3, previous observation; cited from earlier work.
A short description of data set [4]: NADH oxidation rate of purified HIDH enzymes with 2-oxoadipate (fluorescence / UV 340 nm). The class given is biochemical. Conditions: ScHIDH, 15 mM 2-oxoadipate, 100 μM NADH, 0.4 μg purified enzyme. The protocol:
as §1, §2
(§3) Assays were performed with 40 ng/μL enzyme, 15 mM 2-oxoadipate, 100 μM NADH, 20 mM MgCl2 and 100 mM HEPES, pH 7.3 in 10 or 20 μL volumes in 384-well black microplates. NADH concentration was monitored by the decrease in fluorescence (excitation wavelength: 340 nm; emission wavelength: 450 nm) on a fluorescent plate reader. The fluorescence intensities were converted to NADH concentrations based on NADH standards. Reactions with high amounts of NADH (>300 μM) were monitored by the UV absorbance of NADH at 340 nm in a 40 μL reaction volume in a clear 96-well plate on the same plate reader. Reactions with ScHIDH were carried out at 25° C. and reactions with TtHIDH were carried out at 45° C. Reported rates are initial rates from the first 10 minutes of reaction. For KM determination, concentrations of substrate at least 5×-higher than the KM were used (for NADH, 500 μM; for 2-oxoadipate, 15 mM) while the substrate of interest was varied in concentration. KM and Vmax were estimated by fitting data to equation (1) using nonlinear regression, where x is substrate concentration and y is the rate. y=Vmax·x/KM+x (1) Rate data for ScHIDH-R143C, -R143H, and -R143K are summarized in Table 3.

Data set [5] is described as follows: Enantiospecific LC-MS/MS quantification of (R)- and (S)-2-hydroxyadipate product. The settings on record: for Enantiomeric Excess: Table 3, (R)-2-hydroxyadipate product. The class given is biochemical. The protocol: Quantitative, enantiospecific LC-MS/MS was performed based on the procedure described for 2-hydroxyglutarate. Jin et al., PLoS one 6, e16812: 1-8 (2011); Struys, et al., Clin. Chem. 50: 1391-1395 (2004). To 20 μL of reaction mix, 2 μL of 130 μg/mL of a racemic mixture of [3,3,4,4-^2H4]-2-hydroxyglutarate (internal standard) in water was added and the mixture dried by vacuum centrifuge (50° C., 15 min). The dry residue was treated with 50 mg/mL freshly prepared diacetyl-L-tartaric anhydride (Sigma) in dichloromethane/glacial acetic acid (4:1 by volume) and heated (75° C., 30 min). After drying (50° C., 15 min) the residue was dissolved in 100 μL of LC mobile phase A (see below) for analysis. An Agilent 1200 series HPLC (Santa Clara, Calif.) was used for liquid chromatography (LC) and a Sciex/Applied Biosystems API 3200 QTrap (Carlsbad, Calif.) was used for triple quadrupole mass spectrometry (MS/MS). Mobile phase A: water, 3% acetonitrile, 280 μL ammonium hydroxide (^˜25%), pH adjusted to 3.6 with formic acid (^˜98%). Mobile phase B: methanol. Analytical column: Kinetex C-18, 150×4.6 mm, 2.6 μm, and SafeGuard C-18 4×3 mm guard-column from Phenomenex (Torrance, Calif.). Column temperature: 45° C. Elution gradient at 1 mL/min flow rate: 0-1 min 0% B, 1-2 min 0-100% B, 2-3.5 min 100% B, 3.5-4 min 100-0% B, 4-10 min 0% B. Injection volume: 10 μL. Q1/Q3 (m/z) transitions were monitored: 377/161, 2-hydroxyadipate (2HA) and 367/151, [3,3,4,4-^2H4]-2-hydroxyglutarate (2HG-d4). To calibrate, 0, 0.16, 0.54, 1.8, 6, and 20 μg/mL 2-hydroxyadipate (Sigma), synthesized as described above, was analyzed in reaction buffer. (R)- and (S)-enantiomers were discriminated based on time of elution from the HPLC column, using the relative elution time for (R)-2-hydroxyglutarate compared to the racemic mixture of 2-hydroxyglutarate described previously to identify the (R)-2-hydroxyadipate enantiomer. Jin et al., PLoS one 6, e16812: 1-8 (2011). Standards were analyzed alongside experimental samples. Accuracy acceptance criteria were 85% for all but the lowest level (0.16 μg/mL, 80%).

A short description of data set [6]: Kinetic characterization of ScHIDH mutants: KM 2-oxoadipate and Vmax. The class given is biochemical. The settings on record: for Km / Vmax: Table 3; for Km: 40 ng/μL enzyme, 500 μM NADH, 20 mM MgCl2, pH 7.3, 25° C.; for Vmax: from 2-oxoadipate KM experiments. The protocol: as §2, §3
Data set [7] is described as follows: 2-hydroxyadipate dehydrogenase activity of crude bacterial lysates expressing ScHIDH mutants. The data set is classed as biochemical. The settings on record: for reaction rate relative to ScHIDH-R143H: crude lysates, 15 mM 2-oxoadipate. The protocol:
To obtain crude lysates, 0.5 mL of starter cultures generated as described above were added to 4.5 mL LB-Amp, shaken for 2 h, and shaken for an additional 2 h after induction with 1 mM IPTG. Pellets from these cultures were harvested by centrifugation at 4500×g at 4° C. These pellets were resuspended into 500 μL of Buffer A (0.2% Triton-X 100, 1 mM PMSF, 0.5 mM EDTA, 10 mM Tris, pH 7.5) on ice and sonicated for 6-cycles of 15 seconds each on ice on a Sonifer 250 (Branson). This was then spun down at 13,000×g at 4° C. for 15 min and the cleared lysates were normalized with additional lysis buffer to 700 ng/4 and stored at −80° C. as aliquots. Protein concentrations were determined using the BioRad Protein Assay reagent according to the manufacturer's instructions.
as §1, §2

Data set [8] can be described thus: Kinetic characterization of ScHIDH mutants: KM NADH. The data set is classed as biochemical. The settings on record: Table 3; 15 mM 2-oxoadipate, 20 mM MgCl2, pH 7.3, 25° C. The protocol:
as §2, §3

The conditions of data set [9]: literature; cited from earlier work.

The source of these data is US8691960B2, “Oxidoreductases for enantioselective reactions” (Duke University, priority 2012, dated 2014).

Where two headings read alike, the source gives them in different places.

B1: ScHIDH-WT: wild type Saccharomyces cerevisiae homoisocitrate dehydrogenase (encoded by LYS12) (protein, listed as Saccharomyces cerevisiae)
chain: MFRSVATRLSACRGLASNAARKSLTIGLIPGDGIGKEVIPAGKQVLENLNSKHGLSFNFIDLYAGFQTFQETGKALPDETVKVLKEQCQGALFGAVQSPTTKVEGYSSPIVALRREMGLFANVRPVKSVEGEKGKPIDMVIVRENTEDLYIKIEKTYIDKATGTRVADATKRISEIATRRIATIALDIALKRLQTRGQATLTVTHKSNVLSQSDGLFREICKEVYESNKDKYGQIKYNEQIVDSMVYRLFREPQCFDVIVAPNLYGDILSDGAAALVGSLGVVPSANVGPEIVIGEPCHGSAPDIAGKGIANPIATIRSTALMLEFLGHNEAAQDIYKAVDANLREGSIKTPDLGGKASTQQVVDDVLSRL
Take B1: the “rate for homoisocitrate relative to isocitrate” value in data set [1] is recorded as 216 fold. Also, in [2] (ScHIDH, 2-oxoadipate, NADH), the “rate of NADH oxidation when CO2 was added as HCO3” value is 0.061±0.0090 U. The Km in [2] (ScHIDH, read-out: KM,HCO3) was 10 ± 3.7 mM; in data set [3], 16.3 mM. Moreover, the “rate of NADH oxidation in the presence of 2-oxoadipate” value in [4] is listed as under 0.001 U. Moreover, the “concentration of (R)-2-hydroxyadipate after 10 h” value in [5] (ScHIDH, initially 2 mM NADH and 2 mM 2-oxoadipate, 10 h) was “no 2-hydroxyadipate accumulation was observed”.

B2: ScHIDH-R143K: Saccharomyces cerevisiae homoisocitrate dehydrogenase R143K mutant (protein)
chain: MFRSVATRLSACRGLASNAARKSLTIGLIPGDGIGKEVIPAGKQVLENLNSKHGLSFNFIDLYAGFQTFQETGKALPDETVKVLKEQCQGALFGAVQSPTTKVEGYSSPIVALRREMGLFANVRPVKSVEGEKGKPIDMVIVKENTEDLYIKIEKTYIDKATGTRVADATKRISEIATRRIATIALDIALKRLQTRGQATLTVTHKSNVLSQSDGLFREICKEVYESNKDKYGQIKYNEQIVDSMVYRLFREPQCFDVIVAPNLYGDILSDGAAALVGSLGVVPSANVGPEIVIGEPCHGSAPDIAGKGIANPIATIRSTALMLEFLGHNEAAQDIYKAVDANLREGSIKTPDLGGKASTQQVVDDVLSRL
modifications: ScHIDH R143K polypeptide
notes: Saccharomyces cerevisiae homoisocitrate dehydrogenase R143K mutant
On to B2, for which the Michaelis-Menten constant (Km) worked out at 9.4 mM in [6] and 1.1 mM in data set [8]. Besides, in [6], the Vmax amounted to 0.011 µmol/min/mg. For the same molecule, the figures for the “reaction rate relative to ScHIDH-R143H” value in data set [7] (800 μM NADH) and in data set [7] (standard conditions of 100 μM NADH) were 83.0±0.03% and 3.6±0.3%, respectively. Also, the Enantiomeric Excess in data set [5] is over 92%.

B3: ScHIDH-R143C: Saccharomyces cerevisiae homoisocitrate dehydrogenase R143C mutant (protein)
chain: MFRSVATRLSACRGLASNAARKSLTIGLIPGDGIGKEVIPAGKQVLENLNSKHGLSFNFIDLYAGFQTFQETGKALPDETVKVLKEQCQGALFGAVQSPTTKVEGYSSPIVALRREMGLFANVRPVKSVEGEKGKPIDMVIVCENTEDLYIKIEKTYIDKATGTRVADATKRISEIATRRIATIALDIALKRLQTRGQATLTVTHKSNVLSQSDGLFREICKEVYESNKDKYGQIKYNEQIVDSMVYRLFREPQCFDVIVAPNLYGDILSDGAAALVGSLGVVPSANVGPEIVIGEPCHGSAPDIAGKGIANPIATIRSTALMLEFLGHNEAAQDIYKAVDANLREGSIKTPDLGGKASTQQVVDDVLSRL
modifications: ScHIDH R143C polypeptide
notes: Saccharomyces cerevisiae homoisocitrate dehydrogenase R143C mutant
Turning to B3, the Michaelis constant (Km) came out at 11 mM in data set [6] and 0.32 mM in data set [8]. In addition, in data set [6], the maximal velocity (Vmax) amounted to 0.065 µmol/min/mg. Besides, the “maximal turnover compared with other ScHIDH mutants” value in data set [6] (in vitro data) is given as “highest maximal turnover of any ScHIDH mutant assayed”. Further, in data set [7] (100 μM NADH substrate), the “2-hydroxyadipate dehydrogenase activity in crude bacterial lysates” value is recorded as “did not demonstrate 2-hydroxyadipate dehydrogenase activity”. Also, in data set [5], the Enantiomeric Excess was over 99.2%.

B4: TtHIDH-WT: wild type Thermus thermophilus homoisocitrate dehydrogenase (protein, listed as Thermus thermophilus)
chain: MAYRICLIEGDGIGHEVIPAARRVLEATGLPLEFVEAEAGWETFERRGTSVPEETVEKILSCHATLFGAATSPTRKVPGFFGAIRYLRRRLDLYANVRPAKSRPVPGSRPGVDLVIVRENTEGLYVEQERRYLDVAIADAVISKKASERIGRAALRIAEGRPRKTLHIAHKANVLPLTQGLFLDTVKEVAKDFPLVNVQDIIVDNCAMQLVMRPERFDVIVTTNLLGDILSDLAAGLVGGLGLAPSGNIGDTTAVFEPVHGSAPDIAGKGIANPTAAILSAAMMLDYLGEKEAAKRVEKAVDLVLERGPRTPDLGGDATTEAFTEAVVEALKSL
For the molecule B4, in data set [9], the “efficiency for 2-oxoglutarate relative to 2-oxoadipate” value was 20 times. Also, the “rate of NADH consumption with NaHCO3 added” value in [2] (TtHIDH, 2-oxoadipate and NADH, CO2 added as NaHCO3) amounted to 0.14±0.022 U. Moreover, the “increase of (R)-2-hydroxyadipate concentration after 2 h” value in data set [5] (TtHIDH, 100 μM NADH, 15 mM 2-oxoadipate, 45° C., 2 h) is “not observed”.
